Patent publication US20200030424A1 (INNOVATIVE CELLULAR THERAPEUTICS, published 2020)

T1: Human CD19 expressed on cell surfaces (Raji cells; CD19-K562 cells) (human, UniProt P15391 20-556)
T1 construct: whole, on cells; also called antigen CD19; human CD19 antigen
T1 sequence (looked up): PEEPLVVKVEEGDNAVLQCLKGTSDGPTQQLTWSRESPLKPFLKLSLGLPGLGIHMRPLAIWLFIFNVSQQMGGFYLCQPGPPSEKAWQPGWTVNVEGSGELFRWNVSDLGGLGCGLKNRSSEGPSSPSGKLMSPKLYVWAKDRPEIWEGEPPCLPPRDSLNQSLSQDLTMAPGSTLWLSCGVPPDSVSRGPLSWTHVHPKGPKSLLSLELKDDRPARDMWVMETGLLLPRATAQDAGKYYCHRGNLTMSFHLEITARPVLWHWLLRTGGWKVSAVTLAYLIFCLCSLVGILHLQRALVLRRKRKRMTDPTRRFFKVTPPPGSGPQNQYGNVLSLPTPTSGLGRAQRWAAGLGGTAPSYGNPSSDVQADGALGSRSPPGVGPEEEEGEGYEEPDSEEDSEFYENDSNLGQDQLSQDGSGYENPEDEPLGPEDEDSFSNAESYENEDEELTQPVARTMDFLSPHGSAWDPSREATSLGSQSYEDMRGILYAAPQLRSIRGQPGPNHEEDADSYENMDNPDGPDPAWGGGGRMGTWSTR


How the values were obtained:
[1] = target: T1, Human CD19 expressed on cell surfaces …; assay: flow cytometry on Raji cells
Procedure: Raji cell is a strain derived from human B lymphoma cell line. Raji cells were purchased from Chinese Academy of Medical Sciences, Institute of Basic Medical Cell Resource Center. The surface of Raji cells expresses antigen CD19, and the anti-CD19 antibody can be used to analyze the binding capacity of recombinant humanized monoclonal antibodies. By flow cytometry (IFA), binding abilities of the four recombinant humanized antibodies were analyzed.

[2] = target: T1, Human CD19 expressed on cell surfaces …; assay: flow cytometry on CD19-K562 cells

Binder | MFI (GeoMean) [1] | MFI(Geo) [2]
hFMC63 (antibody, V domains shown, Humanized heavy chain hFMC63VH in pTSEG1n-S (human heavy constant)) VH: QVQLQESGPGLVKPSETLSLTCTVSGVSLPDYGWSWIRQPPGKGLEWIGRIWGSETTYYNPSLKSRVTISVDTSKNQFSLKLSSVTAADTAVYYCAKHYYYGGSYAMDYWGQGTLVTVSS VL: DIQMTQTTSSLSASLGDRVTISCRASQDISKYLNWYQQKPDGTVKLLIYHTSRLHSGVPSRFSGSGSGTDYSLTISNLEQEDIATYFCQQGNTLPYTFGGGTKLEIK | 67 | –
h1FMC63 (antibody, V domains shown, Humanized heavy chain h1FMC63VH in pTSEG1n-S (human heavy constant)) VH: QVQLQESGPGLVKPSETLSLTCTVSGVSLPDYGVSWIRQPPGKGLEWIGVIWGSETTYYNSALKSRVTISVDTSKNQFSLKLSSVTAADTAVYYCAKHYYYGGSYAMDYWGQGTLVTVSS VL: DIQMTQTTSSLSASLGDRVTISCRASQDISKYLNWYQQKPDGTVKLLIYHTSRLHSGVPSRFSGSGSGTDYSLTISNLEQEDIATYFCQQGNTLPYTFGGGTKLEIK | 186 | –
h2FMC63VH + L5F3 (antibody, V domains shown, Humanized monoclonal antibody transiently expressed in HEK293 cells, with heavy chain from pTSEG1n-h2FMC63VH; also called L5F3 (humanized antibody)) VH: EVQLVESGGGLVQPGGSLRLSCAASGVSLPDYGVSWVRQAPGKGLEWVSVIWGSETTYYNSALKSRFTISRDNAKNSLYLQMNSLRAEDTAVYYCAKHYYYGGSYAMDYWGQGTLVTVSS VL: SYELTQPPSVSVAPGQTARITCGGNNLGDNSARWYQQKPGQAPVLVIYGNSNRPSGIPERFSGSNSGNTATLTISGTQAEDEADYYCQVTDTRSTSVVFGGGTKLTVL | – | 147
h2FMC63VH + L2D8 (antibody, V domains shown, Humanized monoclonal antibody transiently expressed in HEK293 cells, with heavy chain from pTSEG1n-h2FMC63VH; also called L2D8 (humanized antibody)) VH: EVQLVESGGGLVQPGGSLRLSCAASGVSLPDYGVSWVRQAPGKGLEWVSVIWGSETTYYNSALKSRFTISRDNAKNSLYLQMNSLRAEDTAVYYCAKHYYYGGSYAMDYWGQGTLVTVSS VL: DIQMTQSPSSLSASVGDRVTITCRASQSVGSFLAWYQQKPGKAPKLLIYGASSRESGVPSRFSGSGSGTDFTLTISSLQPEDFATYYCQQTYHNPETFGQGTKVEIK | – | 125
h2FMC63 (antibody, V domains shown, Humanized heavy chain h2FMC63VH in pTSEG1n-S (human heavy constant); also called third version of a humanized antibody) VH: EVQLVESGGGLVQPGGSLRLSCAASGVSLPDYGVSWVRQAPGKGLEWVSVIWGSETTYYNSALKSRFTISRDNAKNSLYLQMNSLRAEDTAVYYCAKHYYYGGSYAMDYWGQGTLVTVSS VL: DIQMTQTTSSLSASLGDRVTISCRASQDISKYLNWYQQKPDGTVKLLIYHTSRLHSGVPSRFSGSGSGTDYSLTISNLEQEDIATYFCQQGNTLPYTFGGGTKLEIK | 330 | –
h2FMC63VH + L2D12 (antibody, V domains shown, Humanized monoclonal antibody transiently expressed in HEK293 cells, with heavy chain from pTSEG1n-h2FMC63VH; also called L2D12 (humanized antibody)) VH: EVQLVESGGGLVQPGGSLRLSCAASGVSLPDYGVSWVRQAPGKGLEWVSVIWGSETTYYNSALKSRFTISRDNAKNSLYLQMNSLRAEDTAVYYCAKHYYYGGSYAMDYWGQGTLVTVSS VL: SYELTQPPSVSVAPGQTARITCGGNDLRAQYVHWYQQKPGQAPVLVMYDDSKRPSGIPERFSGSNSGNTATLTISGTQAEDEADYYCQSWDRTSEPKVFGGGTKLTVL | – | 55.5
